Test results published in patent publication US20200123260A1 (Pfizer, published 2020).
Numbering of substitutions follows the chain as printed.

What was measured:
[1] = molecular target: T1, rhTrkB-ECD (R&D #397-TR/CF) (human, UniProt Q16620 32-430); experiment: competition ELISA on coated rhTrkB-ECD; competitor biotinylated chimeric TOA-1 at 25 ng/ml
T1 construct: extracellular domain; Bought protein; also called human TrkB-extracellular domain protein; human TrkB ectodomain protein

[2] = molecular target: T2, Mouse TrkB ectodomain protein (R&D #1494-TB/CF) (mouse, UniProt P15209 32-429); experiment: SPR (Biacore), TrkB ectodomain immobilised on CM5, antibody injected
T2 construct: extracellular domain; Bought protein; also called mouse TrkB-extracellular domain protein

[3] = molecular target: T1, rhTrkB-ECD (R&D #397-TR/CF); experiment: as above
[4] = molecular target: T1, rhTrkB-ECD (R&D #397-TR/CF); experiment: competition ELISA: plate coated with rhTrkB-ECD; biotinylated chimeric TOA-1 at 25 ng/ml mixed with the unlabeled antibody; streptavidin-HRP
[5] = molecular target: T3, recombinant human TrkA-Fc (rhTrkA-ECD, R&D system, 175-TK) (human, UniProt P04629 33-423); experiment: direct binding ELISA: plate coated with rhTrkA-ECD (Fc chimera) at 5 ug/ml, biotinylated antibody, streptavidin-HRP
T3 construct: extracellular domain; Bought protein; not shown: Fc part, not described

[6] = molecular target: T4, TrkB, Cat (Felis domesticus) on 293 cells (cat (Felis domesticus)); experiment: cell-based ELISA on transfected 293 cells
T4 construct: Whole entry with signal peptide; also called cat TrkB

[7] = molecular target: T5, mouse TrkB (nm_001025074) on HEK293 cells (mouse, UniProt P15209 32-821); experiment: cell-based ELISA on transfected 293 cells
T5 construct: whole, on cells; also called rmuTrkB-CRE

Chimeric TrkA (d4TrkB) = molecular target: T6, Chimeric TrkA (d4TrkB) (human); experiment: cell-based ELISA on transfected 293 cells, HRP-conjugated secondary antibody, TMB, OD450
T6 construct: TrkA residues 187-281 replaced by TrkB residues 190-282

[8] = molecular target: Human TrkA, NP_002520, cell-surface expressed on transfected 293 cells (human, UniProt P04629 33-796); experiment: as above
Chimeric TrkB (d5TrkA) = molecular target: T7, Chimeric TrkB (d5TrkA) (human, UniProt Q16620 32-822); experiment: as above
T7 construct: TrkB residues 284-377 replaced by TrkA residues 280-377

[9] = molecular target: T8, recombinant human TrkC-Fc (rhTrkC-ECD, R&D system, 373-TC/TF) (human, UniProt Q16288 32-429); experiment: direct binding ELISA: plate coated with rhTrkC-ECD (Fc chimera) at 5 ug/ml, biotinylated antibody, streptavidin-HRP
T8 construct: extracellular domain; Bought protein; not shown: Fc part, not described

[10] = molecular target: hTrkC in the SHC1 recruitment assay (U2OS, Discoverx Pathhunter) (human, UniProt Q16288 32-839); experiment: cell-based or functional assay
[11] = molecular target: hTrkB-a isoform fused to a small peptide epitope, in U2OS cells (Discoverx Pathhunter) (human, UniProt Q16620 32-822); experiment: cell-based or functional assay
[12] = molecular target: human TrkB (open reading frame from nm_006180) on HEK293 cells (human, UniProt Q16620 32-822); experiment: cell-based or functional assay
Chain of human TrkB (open reading frame from nm_006180) on HEK293 cells (Q16620 32-822): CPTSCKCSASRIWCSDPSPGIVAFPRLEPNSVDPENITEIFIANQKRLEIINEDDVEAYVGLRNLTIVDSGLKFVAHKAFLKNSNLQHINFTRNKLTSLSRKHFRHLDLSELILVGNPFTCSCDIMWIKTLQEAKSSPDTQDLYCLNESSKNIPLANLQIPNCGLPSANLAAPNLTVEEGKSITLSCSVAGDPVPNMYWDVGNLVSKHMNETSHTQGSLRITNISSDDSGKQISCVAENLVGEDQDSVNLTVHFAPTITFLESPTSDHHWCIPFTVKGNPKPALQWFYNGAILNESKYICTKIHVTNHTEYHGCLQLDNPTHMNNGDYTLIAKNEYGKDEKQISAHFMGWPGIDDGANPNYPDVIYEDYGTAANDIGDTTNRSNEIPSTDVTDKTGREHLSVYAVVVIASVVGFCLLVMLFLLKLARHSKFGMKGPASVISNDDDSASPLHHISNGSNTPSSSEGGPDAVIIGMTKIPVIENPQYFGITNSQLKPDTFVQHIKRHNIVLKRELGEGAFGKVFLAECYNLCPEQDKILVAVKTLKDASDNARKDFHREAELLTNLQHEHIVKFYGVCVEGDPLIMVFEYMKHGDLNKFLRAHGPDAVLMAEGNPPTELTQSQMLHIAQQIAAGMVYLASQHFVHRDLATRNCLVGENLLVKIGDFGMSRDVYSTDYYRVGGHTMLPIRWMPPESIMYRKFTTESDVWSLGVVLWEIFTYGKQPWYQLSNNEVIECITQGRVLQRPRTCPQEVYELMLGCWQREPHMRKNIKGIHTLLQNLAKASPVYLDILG

T2 sequence (P15209 32-429): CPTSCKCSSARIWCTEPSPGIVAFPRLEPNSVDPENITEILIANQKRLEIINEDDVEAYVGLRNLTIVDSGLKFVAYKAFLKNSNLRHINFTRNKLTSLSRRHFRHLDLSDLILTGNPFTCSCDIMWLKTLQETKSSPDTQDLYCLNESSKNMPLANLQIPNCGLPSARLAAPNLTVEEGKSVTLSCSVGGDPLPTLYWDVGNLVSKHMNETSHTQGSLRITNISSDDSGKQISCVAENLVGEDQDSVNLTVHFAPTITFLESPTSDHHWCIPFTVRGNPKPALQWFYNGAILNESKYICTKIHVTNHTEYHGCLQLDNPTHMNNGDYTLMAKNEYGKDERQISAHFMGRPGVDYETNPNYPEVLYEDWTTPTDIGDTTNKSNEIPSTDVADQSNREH
T1 sequence (Q16620 32-430): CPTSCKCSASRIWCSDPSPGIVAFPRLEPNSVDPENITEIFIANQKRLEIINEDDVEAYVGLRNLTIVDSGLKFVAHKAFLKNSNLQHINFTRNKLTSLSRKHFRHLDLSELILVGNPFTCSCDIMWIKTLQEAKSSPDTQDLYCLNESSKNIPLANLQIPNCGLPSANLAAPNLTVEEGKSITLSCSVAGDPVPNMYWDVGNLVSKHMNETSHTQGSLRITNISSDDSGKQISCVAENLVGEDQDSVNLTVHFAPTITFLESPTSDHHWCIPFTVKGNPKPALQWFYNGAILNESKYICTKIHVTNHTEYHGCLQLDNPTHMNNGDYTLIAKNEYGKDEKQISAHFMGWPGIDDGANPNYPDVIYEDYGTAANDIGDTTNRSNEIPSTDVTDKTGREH
T5 sequence (P15209 32-821): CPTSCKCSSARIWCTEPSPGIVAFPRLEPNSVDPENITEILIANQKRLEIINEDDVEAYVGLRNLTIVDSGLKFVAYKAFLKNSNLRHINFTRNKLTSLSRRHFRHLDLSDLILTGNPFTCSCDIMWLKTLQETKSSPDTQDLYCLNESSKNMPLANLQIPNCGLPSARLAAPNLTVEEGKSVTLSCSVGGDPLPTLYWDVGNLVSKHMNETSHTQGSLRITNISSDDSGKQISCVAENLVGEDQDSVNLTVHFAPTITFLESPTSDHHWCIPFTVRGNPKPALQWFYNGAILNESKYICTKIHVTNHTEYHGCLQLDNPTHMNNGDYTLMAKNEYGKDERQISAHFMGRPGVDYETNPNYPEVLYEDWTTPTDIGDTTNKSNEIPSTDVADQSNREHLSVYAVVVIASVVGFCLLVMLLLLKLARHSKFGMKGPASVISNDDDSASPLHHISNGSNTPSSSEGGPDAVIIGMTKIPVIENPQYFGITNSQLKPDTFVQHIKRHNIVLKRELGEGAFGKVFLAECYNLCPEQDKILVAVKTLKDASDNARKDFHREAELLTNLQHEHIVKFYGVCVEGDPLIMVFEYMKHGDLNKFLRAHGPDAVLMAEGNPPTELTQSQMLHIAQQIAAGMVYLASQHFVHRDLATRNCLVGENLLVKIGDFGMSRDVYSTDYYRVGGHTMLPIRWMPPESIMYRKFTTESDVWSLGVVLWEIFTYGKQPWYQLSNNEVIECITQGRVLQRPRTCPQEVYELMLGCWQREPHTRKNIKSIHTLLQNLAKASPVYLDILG
T6 sequence (chain, as listed by the source mutant limits assumed): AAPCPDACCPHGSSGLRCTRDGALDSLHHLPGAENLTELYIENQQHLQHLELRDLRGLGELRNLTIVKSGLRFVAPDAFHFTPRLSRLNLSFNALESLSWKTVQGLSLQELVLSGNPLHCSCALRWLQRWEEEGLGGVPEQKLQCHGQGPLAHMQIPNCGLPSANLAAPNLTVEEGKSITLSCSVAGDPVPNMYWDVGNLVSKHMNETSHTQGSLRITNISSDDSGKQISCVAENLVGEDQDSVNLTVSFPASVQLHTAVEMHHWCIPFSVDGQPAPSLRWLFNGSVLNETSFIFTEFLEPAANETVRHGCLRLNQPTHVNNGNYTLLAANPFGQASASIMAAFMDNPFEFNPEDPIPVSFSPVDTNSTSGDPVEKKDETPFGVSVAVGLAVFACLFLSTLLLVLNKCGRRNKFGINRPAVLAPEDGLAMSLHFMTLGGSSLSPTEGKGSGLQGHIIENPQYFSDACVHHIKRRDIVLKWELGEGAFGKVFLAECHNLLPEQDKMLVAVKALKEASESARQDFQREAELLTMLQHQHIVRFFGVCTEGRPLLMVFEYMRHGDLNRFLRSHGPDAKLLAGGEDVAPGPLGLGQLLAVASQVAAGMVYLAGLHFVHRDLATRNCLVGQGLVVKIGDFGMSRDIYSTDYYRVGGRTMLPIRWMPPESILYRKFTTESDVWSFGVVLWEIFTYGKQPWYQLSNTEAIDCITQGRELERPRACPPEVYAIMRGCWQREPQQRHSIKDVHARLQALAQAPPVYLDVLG
T3 sequence (P04629 33-423): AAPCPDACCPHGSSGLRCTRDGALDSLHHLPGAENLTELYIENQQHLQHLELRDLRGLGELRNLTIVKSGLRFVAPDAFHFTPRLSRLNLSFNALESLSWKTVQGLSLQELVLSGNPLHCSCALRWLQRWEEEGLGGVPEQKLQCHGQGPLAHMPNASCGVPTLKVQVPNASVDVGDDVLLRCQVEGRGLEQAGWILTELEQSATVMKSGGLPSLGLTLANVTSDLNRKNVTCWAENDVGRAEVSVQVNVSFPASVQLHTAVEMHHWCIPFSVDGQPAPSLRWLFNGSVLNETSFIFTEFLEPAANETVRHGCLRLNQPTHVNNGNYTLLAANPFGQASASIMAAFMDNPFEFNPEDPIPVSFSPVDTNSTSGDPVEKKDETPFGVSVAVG
T7 sequence (Q16620 other isoform, or with tags, fused parts or gaps mutant limits assumed): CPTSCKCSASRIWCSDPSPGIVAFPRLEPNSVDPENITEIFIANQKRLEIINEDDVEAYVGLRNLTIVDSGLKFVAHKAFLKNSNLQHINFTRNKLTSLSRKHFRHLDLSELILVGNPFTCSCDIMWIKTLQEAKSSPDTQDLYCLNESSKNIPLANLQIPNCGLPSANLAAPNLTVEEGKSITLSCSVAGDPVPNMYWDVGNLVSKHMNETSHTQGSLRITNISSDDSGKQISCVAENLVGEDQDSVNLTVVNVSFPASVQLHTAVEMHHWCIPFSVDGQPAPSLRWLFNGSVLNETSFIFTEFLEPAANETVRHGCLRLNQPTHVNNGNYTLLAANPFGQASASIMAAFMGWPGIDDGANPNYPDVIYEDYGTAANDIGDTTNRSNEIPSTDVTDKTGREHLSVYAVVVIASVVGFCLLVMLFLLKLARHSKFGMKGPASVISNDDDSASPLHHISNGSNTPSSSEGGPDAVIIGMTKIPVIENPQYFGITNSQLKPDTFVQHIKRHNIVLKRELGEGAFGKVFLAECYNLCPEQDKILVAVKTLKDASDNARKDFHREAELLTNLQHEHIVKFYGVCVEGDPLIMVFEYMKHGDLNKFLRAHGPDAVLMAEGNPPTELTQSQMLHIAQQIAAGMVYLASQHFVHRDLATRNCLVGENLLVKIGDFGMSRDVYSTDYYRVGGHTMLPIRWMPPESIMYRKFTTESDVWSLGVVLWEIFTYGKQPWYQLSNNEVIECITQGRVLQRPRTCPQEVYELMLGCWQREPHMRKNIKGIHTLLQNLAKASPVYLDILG
Chain of hTrkB-a isoform fused to a small peptide epitope, in U2OS cells (Discoverx Pathhunter) (Q16620 32-430): as the sequence (Q16620 32-430) above

B1: TOA-1 variant VH human v1.1 / VL human v1.0 (antibody, V domains shown)
VH: EVQLVESGGGLVQPGGSLRLSCATSGYSFTAYFMNWVRQAPGKGLEWVARINPNNGDTFYTQKFKGRFTISVDNAKNSAYLQMNSLRAEDTAVYYCARRDYFGAMDYWGQGTLVTVSS
VL: DIQMTQSPSSLSASVGDRVTITCRASQTISNNLHWYQQKPGKAPKLLIYSASLAISGVPSRFSGSGSGTDFTLTISSLQPEDFATYYCQQSNSWPNTFGGGTKVEIK
notes: Human IgG; constant regions not restated; also called hu v1.1 / hu v1.0
With B1 as the binder, how does the IC50 [1] read?
The IC50 was 13.6 nM.

B2: TOA-1 variant VH human v2.0 / VL human v1.0 (antibody, V domains shown)
VH: EVQLVQSGAEVKKPGATVKISCKVSGYSFTAYFMNWVQQAPGKGLEWMGRINPNNGDTFYTQKFKGRVTITADTSTDTAYMELSSLRSEDTAVYYCATRDYFGAMDYWGQGTLVTVSS
VL: B1 VL
notes: Human IgG; constant regions not restated; also called hu v2.0 / hu v1.0
With B2 as the binder, how does the IC50 [1] read?
Its IC50 is about 126 nM.

B3: huTOA-1 v1.0/2.0 (antibody, V domains shown)
VH: B1 VH with T24A, V72R, A79L
VL: EIVMTQSPATLSVSPGERATLSCRASQTISNNLHWYQQKPGQAPRLLIYSASLAISGIPARFSGSGSGTEFTLTISSLQSEDFAVYYCQQSNSWPNTFGGGTKVEIK
notes: Human IgG; constant regions not restated; also called VH human v1.0 / VL human v2.0
With B3 as the binder, how does the IC50 [1] read?
The IC50 was 5.9 nM.

What about the Kd [2] of the same binder?
Its Kd is 20.9 nM.

What about the Kd [3] of the same binder?
The Kd was 16.5 nM.

B4: TOA-1 variant VH mouse / VL human v1.0 (antibody, V domains shown)
VH: EVQLQQSGPELVKPGASMKISCKTSGYSFTAYFMNWVKQSHGKSLEWIGRINPNNGDTFYTQKFKGKATLTVDKSSNTAHMELLSLTSEDSAIYYCGRRDYFGAMDYWGQGTSVTVSS
VL: B1 VL
notes: Human IgG from COS-1 conditioned medium; constant regions not restated; also called mu / hu v1.0
With B4 as the binder, how does the IC50 [1] read?
Its IC50 is 16.3 nM.

B5: TOA-1 variant VH mouse / VL human v1.1 (antibody, V domains shown)
VH: B4 VH
VL: B1 VL with K42E, A43S, Y49K
notes: Human IgG from COS-1 conditioned medium; constant regions not restated; also called mu / hu v1.1
For B5, which IC50 [1] is on record?
The IC50 was 13.6 nM.

B6: huTOA-1 VH v1.0 / VL v1.2 (antibody, V domains shown)
VH: B1 VH with T24A, V72R, A79L
VL: B1 VL with K42E
notes: Human IgG; constant regions not restated; also called hu v1.0 / hu v1.2
B6 was tested. Which “IC50 (read off the curve)” value [4] did it give?
Its value is about 9 nM.

B7: TOA-1 variant VH human v1.1 / VL human v2.0 (antibody, V domains shown)
VH: B1 VH
VL: B3 VL
notes: Human IgG; constant regions not restated; also called hu v1.1 / hu v2.0
B7 was tested. Which IC50 [1] did it give?
Its IC50 is 10.7 nM.

B8: huTOA-1 VH v1.0 / VL v1.3 (antibody, V domains shown)
VH: B1 VH with T24A, V72R, A79L
VL: B1 VL with A43S
notes: Human IgG; constant regions not restated; also called hu v1.0 / hu v1.3
How did the “IC50 (read off the curve)” value [4] turn out when B8 was run?
Its value is about 9 nM.

B9: TOA-1 variant VH human v2.0 / VL human v1.1 (antibody, V domains shown)
VH: B2 VH
VL: B1 VL with K42E, A43S, Y49K
notes: Human IgG; constant regions not restated; also called hu v2.0 / hu v1.1
For B9, which IC50 [1] is on record?
Its IC50 is about 87.6 nM.

B10: TOA-1 variant VH human v1.1 / VL human v1.1 (antibody, V domains shown)
VH: B1 VH
VL: B1 VL with K42E, A43S, Y49K
notes: Human IgG; constant regions not restated; also called hu v1.1 / hu v1.1
For B10, which IC50 [1] is on record?
Its IC50 is 10.1 nM.

B11: mouse TOA-1 antibody (antibody, mouse IgG1, V domains shown)
VH: B4 VH
VL: AIVLIQSPATLSVTPGDSVSLSCRASQTISNNLHWYQQKSHESPRLLIKSASLAISGIPSRFSGSGSGTDFTLSISSVETEDFGMYFCQQSNSWPNTFGGGTKLEIK
notes: Hybridoma antibody, cloned with mouse IgG1 and mouse Kappa primers; also called muTOA-1; mTOA-1
Which results are given for B11?
Kd [2]: 16.3 nM; Kd [3]: 14.7 nM; binding result [5]: no binding (tested: about 6.7 nM); EC50 [6]: 0.23 nM; EC50 [7]: 0.4 nM; binding result (Chimeric TrkA (d4TrkB)): no binding (tested: 10.00 ug/ml); binding result [8]: no binding (tested: 10.00 ug/ml); binding result (Chimeric TrkB (d5TrkA)): no binding (tested: 1.0000 ug/ml); binding result [9]: no binding (tested: about 6.7 nM)

B12: chimeric TOA-1 antibody (antibody, V domains shown)
VH: B4 VH
VL: B11 VL
notes: also called chiTOA-1; VH mouse / VL mouse
B12 was tested. Which IC50 [1] did it give?
Its IC50 is 3.6 nM.

And the Kd [2]?
The Kd was 17 nM.

And the Kd [3]?
The Kd was 12.1 nM.

B13: TOA-1 variant VH human v2.0 / VL human v2.0 (antibody, V domains shown)
VH: B2 VH
VL: B3 VL
notes: Human IgG; constant regions not restated; also called hu v2.0 / hu v2.0
Which IC50 [1] does the source give for B13 here?
The IC50 was about 37.8 nM.

B14: BDNF (R&D systems, cat #248-BD) (ligand, human, UniProt P23560 129-247, looked up)
chain: HSDPARRGELSVCDSISEWVTAADKKTAVDMSGGTVTVLEKVPVSKGQLKQYFYETKCNPMGYTKEGCRGIDKRHWNSQCRTTQSYVRALTMDSKKRIGWRFIRIDTSCVCTLTIKRGR
What does the source list for B14?
EC50, SHC1 recruitment assay [10]: 5.45 nM; EC50, SHC1 recruitment assay [11]: 1.02 nM; Cre-luciferase reporter, EC50 (FIG. 38) [12]: 5.2 nM
